According to patent US7026282B1, “Peptide antagonists of the human urokinase receptor and method for selecting them” (Cancerforskningsfonden AF 1989 (Fonden Til Fremme AF …, priority 1998, dated 2006):
“Also recorded” adds a separate entry of the source. Starred links: 1 amine or outer side, 2 acyl side, 3 side chain; linkers in the order of their positions; H or OH if unused. Non-standard residues stand in square brackets, D forms with d. No end group written: not given here. DMB = N-(2,3-dimethoxybenzyl)glycine, COc1cccc(CN(CC(=O)[*:2])[*:1])c1OC; Gly(N(CH2)2(3-indolyl)) = O=C(O)CNCCc1c[nH]c2ccccc12; 1Nal = N[C@@H](Cc1cccc2ccccc12)C(=O)O; 2Nal = N[C@@H](Cc1ccc2ccccc2c1)C(=O)O; AMN = N-(methylnaphthalyl)glycine; Cha = N[C@@H](CC1CCCCC1)C(=O)O; Nme = COCCNCC(=O)O; βAla = NCCC(=O)O

Assays:
[1] = biological target: soluble recombinant variant of human uPAR (suPAR) (human) (UniProt Q03405); assay: SPR (Biacore), ligand over immobilised neuramimidase-treated human suPAR
Sequence of soluble recombinant variant of human uPAR (suPAR) (human) (Q03405 23-299, change not shown): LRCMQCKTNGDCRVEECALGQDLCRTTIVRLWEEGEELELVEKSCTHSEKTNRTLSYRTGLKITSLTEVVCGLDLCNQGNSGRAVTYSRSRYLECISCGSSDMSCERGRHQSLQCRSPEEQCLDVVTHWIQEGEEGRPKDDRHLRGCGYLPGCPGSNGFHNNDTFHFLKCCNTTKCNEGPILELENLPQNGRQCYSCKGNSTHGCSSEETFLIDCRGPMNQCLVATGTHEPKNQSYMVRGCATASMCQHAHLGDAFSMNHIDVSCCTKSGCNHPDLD

[2] = biological target: T1, neuramimidase-treated human suPAR (soluble recombinant uPAR) (Homo sapiens, UniProt Q03405); assay: Biacore Binding Assay (surface plasmon resonance), ligand binding to immobilised suPAR; conditions: for kdiss (dissociation rate constant, off-rate): Biacore, 5° C., immobilised suPAR; for Relative kdiss: relative to the Growth Factor Domain of uPA (GFD = 1.0); for dissociation constant compared with other peptides: peptomer analogues; for human uPAR binding after introduction of spacing residues: spacer between D-arginine and L-tyrosine
T1 construct: A soluble recombinant variant of human uPAR (suPAR) was expressed in Chinese hamster ovary (dhfr) cells; made in house; host or cells: Chinese hamster ovary (dhfr) cells
T1 sequence (Q03405 23-305 limits assumed): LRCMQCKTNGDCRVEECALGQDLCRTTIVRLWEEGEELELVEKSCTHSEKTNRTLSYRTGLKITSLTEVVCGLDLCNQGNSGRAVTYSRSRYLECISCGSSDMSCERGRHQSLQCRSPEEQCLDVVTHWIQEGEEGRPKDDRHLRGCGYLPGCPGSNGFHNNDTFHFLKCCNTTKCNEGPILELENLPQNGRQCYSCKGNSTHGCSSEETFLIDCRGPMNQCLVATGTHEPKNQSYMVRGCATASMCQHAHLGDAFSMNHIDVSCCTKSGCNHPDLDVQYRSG
Description: Association rate constants (kass), dissociation rate constants (kdiss) and equilibrium binding constants (kd) for various synthetic peptides and receptor binding derivatives of human uPA were determined by surface plasmon resonance (R. Karlsson et al. (1991) J. Immunol. Meths. 145:229–240) using a BIAcore2000™ instrument (Pharmacia Biosensor, Uppsala, Sweden). Due to the low isoelectric point of uPAR (pI≈4.5) terminal sialic acid residues were removed from its N-linked carbohydrates to facilitate chemical immobilisation on the sensor chip. This was accomplished by incubating purified suPAR (1 mg/ml in 50 mM phosphate, 150 mM NaCl, pH 7.4) with 5 μg/ml neuramimidase for 4 hours at 37° C. […] Coupling of the neuramimidase-treated suPAR to a BIAcore sensor chip was achieved by injection of 20 μg/ml suPAR in 10 mM sodium acetate pH 5.0 for 6 minutes at a flow rate of […] per minute using a carboxymethylated dextran matrix (CM5 sensor chip) preactivated with N-hydroxysuccinimide/N-ethyl-N′-[3-([…])propyl]carbodiimide according to the manufacturer's recommendations. Approximately 1,500–2,000 resonance units (RU) were immobilised by this procedure (corresponding to 1–2 ng suPAR/mrn^2).
Sensorgrams (RU versus time) were recorded (FIG. 2) at a flow rate of 10 μl per min at 5° C. using several different concentrations of the ligand (synthetic peptides, uPA, the amino-terminal fragment (ATF) of uPA, or the growth factor domain (GFD) of uPA) in the range of 10 to 1000 nM in running buffer (10 mM HEPES, 150 mM NaCl, 3 mM EDTA (pH 7.4) including 0.005% surfactant P-20). Stock solutions of peptides from combinatorial chemistry were made in DMSO (10 mg peptide/ml DMSO). The sensor chip was regenerated at the end of each run by injection of 0.1 M acetic acid, 0.5 M NaCl. Data obtained from parallel mock coupled flow cells (subjected to the coupling procedure in the presence of buffer only) served as blank sensorgrams for subtraction of changes in bulk refractive index. The sensorgrams obtained were analysed by non-linear least squares fitting using BIAevaluation 2.0 software (Pharmacia Biosensor, Uppsala, Sweden) assuming single-site association and dissociation models.
Purified human suPAR (1 mg/ml in 50 mM phosphate, 150 mM NaCl, pH 7.4) was incubated with 5 μg/ml neuramimidase for 4 hours at 37° C.
In order to couple the neuramimidase-treated suPAR to a BIAcore sensor chip, 20 μg/ml suPAR in 10 mM sodium acetate (pH 5.0) was injected for 6 minutes at a flow rate of 5 μl per minute using a carboxymethylated dextran matrix (CM5 sensor chip), thereby immobilising approximately 1,500–2,000 resonance units (RU), which correspond to 1–2 ng suPAR/mm^2. The CM5 sensor chip was preactivated with N-hydroxysuccinimide/N-ethyl-N′-[3-([…])propyl]carbodiimide in accordance with the manufacturer's recommendations.
Surface plasmon resonance sensorgrams (RU versus time) were recorded at a flow rate of 10 μl per min at 5° C. using several different concentrations of the ligand (i.e. the relevant peptide or GFD) in the range from 10 to 1000 nM in running buffer (10 mM HEPES, 150 mM NaCl, 3 mM EDTA (pH 7.4) including 0.005% surfactant P-20).
The sensor chip was regenerated at the end of each run by injection of 0.1 M acetic acid, 0.5 M NaCl.
Data from parallel mock coupled flow cells (subjected to the coupling procedure in the presence of buffer only) served as blank sensorgrams for subtraction of changes in bulk refractive index.
The obtained sensorgrams were analysed by non-linear least squares fitting using BIAevaluation 2.0 software (Pharmacia Biosensor, Uppsala, Sweden) assuming single-site ssociation and dissociation models.

Molecule	Relative kdiss (relative to GFD) [1]	koff [1] [s⁻¹]	kdiss (dissociation rate constant, off-rate) [2]	Relative kdiss [2]	dissociation constant compared with other peptides [2]	human uPAR binding after introduction of spacing residues [2]
AE100 (peptide)	4	0.00056	–	–	–	–
ATF: amino-terminal-fragment (ATF) of human uPA	–	–	0.00012 s⁻¹	0.86	–	–
D-Cha-F-s-r-Cha-L-W-l (D[Cha]F[dS][dR][Cha]LW[dL]) [AE132]	–	–	0.00053 s⁻¹	3.8	–	–
D-Cha-F-s-r-DMB-f-AMN-MEA (D[Cha]F[dS][dR][DMB][dF][AMN][Nme]) [AE126, peptide-peptoid hybrid (peptomer)]	–	–	0.00037 s⁻¹	2.6	same order of magnitude as the best of the peptides; also recorded: approximating those of AE105 and AE110	–
D-Cha-F-s-r-DMB-f-DMB-l (D[Cha]F[dS][dR][DMB][dF][DMB][dL]) [AE129, peptide-peptoid hybrid (peptomer)]	–	–	0.00054 s⁻¹	3.9	–	–
D-Cha-F-s-r-DMB-f-TRA-MEA (D[Cha]F[dS][dR][DMB][dF][Gly(N(CH2)2(3-indolyl))][Nme]) [AE124, peptide-peptoid hybrid (peptomer)]	–	–	0.00561 s⁻¹	40.0	same order of magnitude as the best of the peptides	–
D-Cha-F-s-r-DMLB-f-Bzl-MEA [AE125, peptide-peptoid hybrid (peptomer)]	–	–	0.00074 s⁻¹	5.3	same order of magnitude as the best of the peptides	–
D-Cha-F-s-r-L-L-W-h (D[Cha]F[dS][dR]LLW[dH]) [AE130]	–	–	0.00051 s⁻¹	3.6	–	–
D-Cha-F-s-r-MEA-DMB-f-AMN (D[Cha]F[dS][dR][Nme][DMB][dF][AMN]) [AE128, peptide-peptoid hybrid (peptomer)]	–	–	no binding	>>100	same order of magnitude as the best of the peptides	–
D-Cha-F-s-r-Y-L-Nal-h (D[Cha]F[dS][dR]YLX[dH]; not fully specified (residue 8); printed as D-Cha-F-s-r-Y-L-Nal-h) [AE131]	–	–	0.00056 s⁻¹	4.0	–	–
DChaFSrYLWS (DXFSRYLWS; D-residues; non-natural residues; cyclised or stapled) [AE106]	–	–	0.00263 s⁻¹	18.7	–	–
DChaFsRYLWS (DXFSRYLWS; D-residues; non-natural residues; cyclised or stapled) [AE110]	–	–	0.00028 s⁻¹	2.0	–	–
DChaFsrGYLWS (D[Cha]F[dS][dR]GYLWS) [AE116]	–	–	no binding	>>100	–	abolished the binding
DChaFsrβAYLWS (D[Cha]F[dS][dR][βAla]YLWS) [AE117]	–	–	no binding	>>100	–	abolished the binding
DFFsrYLWS (DFF[dS][dR]YLWS) [AE112]	–	–	0.00181 s⁻¹	12.9	–	–
DNFsrYLWS (DNF[dS][dR]YLWS) [AE113]	–	–	no binding	>>100	–	–
DchaFsrYL^1nAS [AE114]	–	–	0.00059 s⁻¹	4.2	–	–
LNFsQYLWS (LNF[dS]QYLWS) [AE111]	–	–	0.00105 s⁻¹	7.5	–	–
SLChaFsQYLWS (SL[Cha]F[dS]QYLWS)	–	–	0.00349 s⁻¹	24.9	–	–

Molecule	Relative kdiss (relative to GFD) [1]	koff [1] [s⁻¹]	kdiss (dissociation rate constant, off-rate) [2]	Relative kdiss [2]	dissociation constant compared with other peptides [2]	human uPAR binding after introduction of spacing residues [2]
SLNFSQYLWS (AE68) [reference compound]	–	–	0.0129 s⁻¹	92.1	–	–
amino-terminal-fragment (ATF) of human uPA (from UniProt P00749 21-155) (ligand)	0.86	0.00012	–	–	–	–
arFhhYLWS ([dA][dR]F[dH][dH]YLWS) [AE104]	–	–	no binding	>>100	–	–
dChaFSrYLWS (DXFSRYLWS; D-residues; non-natural residues; cyclised or stapled) [AE107]	–	–	0.00884 s⁻¹	63.1	–	–
dChaFsrYLWs (DXFSRYLWS; not fully specified; D-residues; non-natural residues; cyclised or stapled)	–	–	0.00068 s⁻¹	4.9	–	–
dChaFsrYL^2nAS ([dD][Cha]F[dS][dR]YL[2Nal]S) [AE109]	–	–	0.00205 s⁻¹	14.6	–	–
eChaFsYYLWS ([dE][Cha]F[dS]YYLWS) [AE115]	–	–	0.00167 s⁻¹	11.9	–	–
eChaFsyYLWS ([dE][Cha]F[dS][dY]YLWS) [AE100]	–	–	0.00056 s⁻¹	4.0	–	–
tChaFsrYLWS ([dT][Cha]F[dS][dR]YLWS) [AE108]	–	–	0.00048 s⁻¹	3.4	–	–
SLNFSQYLWS [AE68]	92.1	0.0129	–	–	–	–
D[Cha]F[dS][dR]GYLWS (not fully specified) [AE116]	> 100	–	–	–	–	–
D[Cha]F[dS][dR][βAla]YLWS (not fully specified; printed as DChaFsrβAYLWS) [AE117]	> 100	–	–	–	–	–
DXFSRYLWS (beta-cyclohexyl-L-alanine (Cha) at 2; D-Arg at 5) [AE106]	18.7	0.00263	–	–	–	–
DXFSRYLWS (D-Asp at 1; beta-cyclohexyl-L-alanine (Cha) at 2; D-Arg at 5) [AE107]	63.1	0.00884	–	–	–	–
SL[Cha]F[dS]QYLWS [Lcha]	24.9	0.00349	–	–	–	–
DXFSRYLWS (beta-cyclohexyl-L-alanine (Cha) at 2; D-Ser at 4) [AE110]	2	0.00028	–	–	–	–
D[Cha]F[dS][dR]YL[1Nal]S [AE114]	4.2	0.00059	–	–	–	–
[dE][Cha]F[dS]YYLWS [AE115]	11.9	0.00167	–	–	–	–
LNF[dS]QYLWS [AE111]	7.5	0.00105	–	–	–	–
